Experimental findings from patent publication US20260265358A1 (BYOMASS, published 2026) are described below.

One test has as its target T1, Human Activin A Fc (human, UniProt P03970 309-424 (pig entry)).
T1 construct: also called human Activin A-Fc fusion; human Activin A-Fc antigen; not shown: Fc part
T1 sequence: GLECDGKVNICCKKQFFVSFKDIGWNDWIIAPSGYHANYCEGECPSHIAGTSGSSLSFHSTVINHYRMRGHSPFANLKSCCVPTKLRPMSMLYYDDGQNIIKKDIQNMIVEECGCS
Briefly: Octet BLI, IgG, avid. The protocol: ForteBio affinity measurements were performed on an Octet HTX generally as previously described (see, e.g., Estep et al, Mabs 5(2), 270-278 (2013)). Briefly, ForteBio affinity measurements were performed by loading IgGs on-line onto AHC sensors. Sensors were equilibrated off-line in assay buffer for 30 min and then monitored on-line for 60 seconds for baseline establishment. Sensors with loaded IgGs were exposed to 100 nM antigen for 3 minutes, and afterwards were transferred to assay buffer for 3 min for off-rate measurement. All kinetics were analyzed using the 1:1 binding model.
Binding affinity and epitope binning assays were performed with a ForteBio instrument as described herein.

For another test, the target named is T2, BMP10 (UniProt O95393 317-424).
T2 sequence (looked up): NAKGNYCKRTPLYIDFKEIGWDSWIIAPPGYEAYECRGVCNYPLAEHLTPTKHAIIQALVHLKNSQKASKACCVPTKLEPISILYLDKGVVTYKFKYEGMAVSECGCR
As to the kind of experiment: Octet BLI, IgG, avid.

The target of a further test is Human GDF8 (human, UniProt O14793 267-375). As to the kind of experiment: Octet BLI, IgG, avid.
A further test addresses T3, Human GDF10 (human, UniProt P55107 369-478).
T3 sequence (looked up): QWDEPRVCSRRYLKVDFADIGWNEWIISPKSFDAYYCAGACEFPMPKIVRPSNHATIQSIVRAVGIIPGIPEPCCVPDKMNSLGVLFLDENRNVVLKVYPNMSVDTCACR
As to the kind of experiment: Octet BLI, IgG, avid.

The next test has as its target T4, BMP9 (UniProt Q9UK05 320-429).
T4 sequence (looked up): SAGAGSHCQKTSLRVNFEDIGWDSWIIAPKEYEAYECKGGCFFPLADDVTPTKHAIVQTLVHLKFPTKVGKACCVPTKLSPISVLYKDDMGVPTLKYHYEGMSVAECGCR
As to the kind of experiment: Octet BLI, IgG, avid.

For a further test, the target named is T5, Human GDNF (human, UniProt P39905 78-211).
T5 sequence (looked up): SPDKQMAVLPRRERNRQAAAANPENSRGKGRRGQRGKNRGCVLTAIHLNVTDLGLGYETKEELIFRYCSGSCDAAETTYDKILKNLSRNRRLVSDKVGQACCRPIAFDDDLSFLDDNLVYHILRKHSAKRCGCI
As to the kind of experiment: Octet BLI, IgG, avid.

A further test deals with T6, GDF15 Fc (UniProt Q99988 197-308, limits assumed).
T6 construct: not shown: Fc part
T6 sequence (looked up): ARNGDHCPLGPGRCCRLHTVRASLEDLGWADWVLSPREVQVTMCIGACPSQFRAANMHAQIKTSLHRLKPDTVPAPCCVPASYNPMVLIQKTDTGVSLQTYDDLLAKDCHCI
As to the kind of experiment: Octet BLI, IgG, avid.

A further test addresses Human GDF11 (human, UniProt O95390 299-407). As to the kind of experiment: Octet BLI, IgG, avid.
The target of test [1] is T7, Activin B (UniProt P09529 293-407).
T7 sequence (looked up): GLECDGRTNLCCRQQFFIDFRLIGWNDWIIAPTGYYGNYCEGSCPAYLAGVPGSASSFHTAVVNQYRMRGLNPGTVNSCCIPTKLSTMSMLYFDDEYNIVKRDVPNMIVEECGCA
Briefly: Octet BLI, IgG, avid.

Test [2] addresses T7, Activin B. Briefly: cell-based or functional assay.
Test [3] concerns the target T8, Activin A (ligand of the Activin 2B Receptor/SMAD reporter assay) (UniProt P08476 311-426).
T8 sequence (looked up): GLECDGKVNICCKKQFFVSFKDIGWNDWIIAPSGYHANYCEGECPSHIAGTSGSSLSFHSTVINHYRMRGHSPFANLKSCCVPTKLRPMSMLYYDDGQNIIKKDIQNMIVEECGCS
Briefly: cell-based or functional assay.

Human GDF11, sequence (O95390 299-407 limits assumed): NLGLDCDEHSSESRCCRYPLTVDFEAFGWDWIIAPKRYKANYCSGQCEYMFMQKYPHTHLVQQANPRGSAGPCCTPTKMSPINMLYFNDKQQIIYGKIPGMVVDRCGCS

B1: anti-Activin A antibody Clone F (IgG) (antibody, V domains shown)
VH: QVQLVQSGAEVKKPGASVKVSCKASGYTFTGYHIHWVRQVPGQGLEWMGVISAYSGDTNYAQKLQGRVTMTTDTSTSTAYMELRSLRSDDTAVYYCARARDIAALGLGAFDYWGQGTLVTVSS
VL: EIVLTQSPATLSVSPGERATLSCRASQSVSSNLAWYQQKPGQAPRLLIYGASDRATGIPARFSGSGSGTEFTLTISSLQSEDFAVYYCIQYSNYPRTFGGGTKVEIKR
notes: IgG format; also called Antibody F
As to B1, the Kd with Human Activin A Fc came out at 0.492 nM; in the test with Human GDF11, 18.7 nM; with Activin B [1] it was 80.1 nM. The binding result with BMP10, with Human GDF8, with Human GDF10, in the test with BMP9, with Human GDNF and in the test with GDF15 Fc was “no binding (tested: 100 nM antigen)” throughout. Moreover, in the test with Activin B [2], the “Activin B-ActRIIB SMAD IC50 pM” value stood at 24900 pM.

B2: anti-Activin A antibody Clone E (IgG) (antibody, V domains shown)
VH: QVQLVQSGAEVKKPGASVKVSCKASGYTFHGYNMHWVRQAPGQGLEWMGSINPYSGYTIYAQKFQGRVTMTRDTSISTAYMELSRLRSDDTAVYYCARARDIAAAGLGAFDYWGQGTLVTVSS
VL: EIVLTQSPGTLSLSPGERATLSCRASQSVRSSYLAWYQQKPGQAPRLLIYGASSRATGIPDRFSGSGSGTDFTLTISRLEPEDFAVYYCQQYVSYPRTFGGGTKVEIKR
notes: IgG format; also called Antibody E
Consider B2, for which the Kd is 0.551 nM with Human Activin A Fc and 27.3 nM with Human GDF11. Moreover, the binding result with BMP10, with Human GDF8, with Human GDF10, with BMP9, with Human GDNF and with GDF15 Fc was “no binding (tested: 100 nM antigen)” in each case. Further, the “Activin B-ActRIIB SMAD IC50 pM” value in the test with Activin B [2] is 83600 pM. Besides, the “Activin A-ActRIIB SMAD IC50 pM” value in test [3] worked out at 16.5 pM.

B3: anti-Activin A antibody Clone K (IgG) (antibody, V domains shown)
VH: QVQLVQSGAEVKKPGSSVKVSCKASGGTSSSYAISWVRQAPGQGLEWMGYIIPAFGTANYAQKFQGRVTITADESTSTAYMELSSLRSEDTAVYYCARPVRTYPLGKYFYHWGQGTLVTVSS
VL: EIVLTQSPATLSLSPGERATLSCRASQSVSSYLAWYQQKPGQAPRLLIYDASNRATGIPARFSGSGSGTDFTLTISSLEPEDFAVYYCQQDSIFPPYTFGGGTKVEIKR
notes: IgG format; also called Antibody K
As to B3, the Kd with Human Activin A Fc turned out to be 0.43 nM. Also, the binding result with BMP10, with Human GDF8, with Human GDF10, with BMP9, in the test with Human GDNF and in the test with GDF15 Fc was “no binding (tested: 100 nM antigen)” each time. Moreover, the binding result with Human GDF11 and in the test with Activin B [1] was “no binding (tested: 100 nM antigen)” in each case. In addition, in the test with Activin B [2], the “Activin B-ActRIIB SMAD IC50 pM” value stood at 30700 pM.
